In the experiment the target is recombinant human α-synuclein (human) (UniProt P37840).

As for amyloid-β 1-42 synthetic peptide, the EC50 of the loss of synaptophysin (ELISA) in mouse cortical neurons incubated 24 hours with αSN premixed with Aβ1-42 (1:50); αSN alone 500 nM turned out to be 0.025 µM.

Source of the values: article PMC3017026.
